Where two headings read alike, the source gives them in different places.
Experiments:
[1] = target: human C3b (human) (UniProt P01024); assay: radioligand binding
[2] = target: human C3b (human) (UniProt P01024); assay: radioligand binding; remark: listed apart in the source

## wildtype rH19-20 (recombinant domains 19-20 of factor H) (from UniProt P08603 1107-1231) (domain or fragment)
[1]
  IC50: 200 nM
[2]
  IC50: 1000 nM

Reference: publication PMC2696619
